# Experimental data published in PMC11514446, “Transcription start site scanning requires the fungi-specific hydrophobic loop of Tfb3” (Nucleic Acids Research, 2024).
# B1: Tfa2 (subunit of TFIIE) (natural protein, S. cerevisiae, UniProt P36145 1-328, looked up)
# chain: MSKNRDPLLANLNAFKSKVKSAPVIAPAKVGQKKTNDTVITIDGNTRKRTASERAQENTLNSAKNPVLVDIKKEAGSNSSNAISLDDDDDDEDFGSSPSKKVRPGSIAAAALQANQTDISKSHDSSKLLWATEYIQKKGKPVLVNELLDYLSMKKDDKVIELLKKLDRIEFDPKKGTFKYLSTYDVHSPSELLKLLRSQVTFKGISCKDLKDGWPQCDETINQLEEDSKILVLRTKKDKTPRYVWYNSGGNLKCIDEEFVKMWENVQLPQFAELPRKLQDLGLKPASVDPATIKRQTKRVEVKKKRQRKGKITNTHMTGILKDYSHRV
# notes: Tfa2, S. cerevisiae, subunit of TFIIE; contains the WH domain; Stood in the assay as a subunit of TFIIE inside the reconstituted PIC-ΔTFIIK
# B2: Tfa1 (subunit of TFIIE) (natural protein, S. cerevisiae, UniProt P36100 1-482, looked up)
# chain: MDRPIDDIVKNLLKFVVRGFYGGSFVLVLDAILFHSVLAEDDLKQLLSINKTELGPLIARLRSDRLISIHKQREYPPNSKSVERVYYYVKYPHAIDAIKWKVHQVVQRLKDDLDKNSEPNGYMCPICLTKYTQLEAVQLLNFDRTEFLCSLCDEPLVEDDSGKKNKEKQDKLNRLMDQIQPIIDSLKKIDDSRIEENTFEIALARLIPPQNQSHAAYTYNPKKGSTMFRPGDSAPLPNLMGTALGNDSSRRAGANSQATLHINITTASDEVAQRELQERQAEEKRKQNAVPEWHKQSTIGKTALGRLDNEEEFDPVVTASAMDSINPDNEPAQETSYQNNRTLTEQEMEERENEKTLNDYYAALAKKQAKLNKEEEEEEEEEEDEEEEEEEEMEDVMDDNDETARENALEDEFEDVTDTAGTAKTESNTSNDVKQESINDKTEDAVNATATASGPSANAKPNDGDDDDDDDDDEMDIEFEDV
# notes: Tfa1, S. cerevisiae, subunit of TFIIE; Stood in the assay as a subunit of TFIIE inside the reconstituted PIC-ΔTFIIK
# B3: Rpb4 (subunit of RNA polymerase II) (natural protein, S. cerevisiae, UniProt P20433 1-221, looked up)
# chain: MNVSTSTFQTRRRRLKKVEEEENAATLQLGQEFQLKQINHQGEEEELIALNLSEARLVIKEALVERRRAFKRSQKKHKKKHLKHENANDETTAVEDEDDDLDEDDVNADDDDFMHSETREKELESIDVLLEQTTGGNNKDLKNTMQYLTNFSRFRDQETVGAVIQLLKSTGLHPFEVAQLGSLACDTADEAKTLIPSLNNKISDDELERILKELSNLETLY
# notes: Rpb4, S. cerevisiae, subunit of RNA polymerase II; Stood in the assay as a subunit of pol II inside the reconstituted PIC-ΔTFIIK
# Target: T1, Rad3 (subunit of core TFIIH / TFIIH-ΔTFIIK) (S. cerevisiae, UniProt P06839 1-778)
# T1 construct: Rad3, S. cerevisiae, subunit of the seven-subunit core TFIIH; contains the ARCH domain; Stood in the assay as a subunit of core TFIIH inside the reconstituted PIC-ΔTFIIK; also called XPD of metazoan TFIIH (homolog)
# T1 sequence (looked up): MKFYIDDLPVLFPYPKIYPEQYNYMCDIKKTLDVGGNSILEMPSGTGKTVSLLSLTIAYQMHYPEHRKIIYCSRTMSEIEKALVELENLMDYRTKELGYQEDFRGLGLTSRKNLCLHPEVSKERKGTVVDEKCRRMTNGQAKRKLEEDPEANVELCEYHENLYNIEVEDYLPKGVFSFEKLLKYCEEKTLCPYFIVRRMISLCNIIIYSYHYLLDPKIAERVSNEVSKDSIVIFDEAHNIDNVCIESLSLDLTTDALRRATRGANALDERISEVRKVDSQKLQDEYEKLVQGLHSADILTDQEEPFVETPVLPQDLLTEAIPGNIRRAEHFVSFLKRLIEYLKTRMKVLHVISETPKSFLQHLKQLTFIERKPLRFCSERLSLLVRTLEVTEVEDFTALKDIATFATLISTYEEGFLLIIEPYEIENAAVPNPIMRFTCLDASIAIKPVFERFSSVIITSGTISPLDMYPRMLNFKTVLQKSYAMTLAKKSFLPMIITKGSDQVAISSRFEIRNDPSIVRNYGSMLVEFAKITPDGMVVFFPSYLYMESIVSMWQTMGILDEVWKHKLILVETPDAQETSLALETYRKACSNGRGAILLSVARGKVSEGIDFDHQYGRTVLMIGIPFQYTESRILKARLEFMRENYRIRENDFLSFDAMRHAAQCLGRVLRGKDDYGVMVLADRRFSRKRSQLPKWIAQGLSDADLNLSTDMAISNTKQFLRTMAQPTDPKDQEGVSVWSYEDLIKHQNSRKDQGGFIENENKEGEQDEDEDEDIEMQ
# Test: cryo-EM structure; PIC-ΔTFIIK reconstituted from purified factors (TFIIA, TFIIB, TBP, TFIIE, TFIIF, TFIIH-ΔTFIIK, pol II, TFIIS) on a HIS4 promoter DNA fragment, nucleotide-free; glycerol gradient with 0-0.125% glutaraldehyde fixation; two forms from 3D classification (form 1 at 3.7 Å, form 2 at 3.8 Å)
# Conditions: both partners purified
row,Binder,binding result
1,B1,binds
2,B2,binds
3,B3,binds
